Source: patent US20240251767A1 (LEVERAGEN, published 2024)
Like-named read-outs stand apart in the source and are kept apart here.

B1: MS329_5 Nb-human Fc fusion (Fc fusion, not shown: a dimerising Fc or GST)
VH: EVQLQQSGPELVKPGASVKMSCKASGYTFTDYYIKWEKQSHGKSLEWIGDINPKNGETFYNQQFKGKATLTVDKSSSTAYMQLNSLTSEDSAVYYCARKEYGDYGYAVDYWGQGTSVTVSS
notes: also called LVGN-S3205; LVGN-53205
B2: M2S521_378 Nb-human Fc fusion (Fc fusion, not shown: a dimerising Fc or GST)
VH: EVQLQQSGPELVKPGASVKISCKASGYTFTDYYMKWVKQSHGKSLEWIGDINPKNGGTNYNQKFKDKATLTVDKSSSTAYMELRSLTSEDSAVYYCARLEDGYYGYAIDYWSQGTSVTVSS
notes: also called LVGN-S231378; LVGN-S521378

Experiments:
[1] = target: T1, SARS-Cov2 Spike Active Trimer SAT (R&D Systems; Catalog No. 10549-CV) (SARS-CoV2, UniProt P0DTC2 16-1211)
T1 construct: also called SARS-CoV2 Spike Active Trimer protein; recombinant SAT protein

[2] = target: T1, SARS-Cov2 Spike Active Trimer SAT (R&D …); experiment: ELISA, serially diluted purified Nb-Fc on SAT antigen
[3] = target: T1, SARS-Cov2 Spike Active Trimer SAT (R&D …)
[4] = target: T1, SARS-Cov2 Spike Active Trimer SAT (R&D …); experiment: SPR (Carterra)

| Binder | Kd [1] [nM] | EC50 [2] [nM] | Kd [3] [nM] | koff [3] [s⁻¹] | kon [3] [M⁻¹ s⁻¹] | Kd [4] [nM] |
| --- | --- | --- | --- | --- | --- | --- |
| B1 | 1.21 | 0.024 | 1.06 | 0.000143 | 135000 | 3.17 |
| B2 | – | 0.081 | – | – | – | – |
